Measured values reported in paper PMC12287301, “DSK2-mediated degradation of F-box protein LAO1 and class I TCPs modulates the nitrogen starvation response” (EMBO Reports, 2025).

B1: GST-DSK2B CT (domain or fragment, Arabidopsis thaliana, UniProt Q9SII8 237-551, looked up)
chain: MRNTDRAMSNIESMPEGFNMLRRMYENVQEPLMNATTMSGNAGNNTGSNPFAALLGNQGVTTQGSDASNNSSTPNAGTGTIPNANPLPNPWGATGGQTTAPGRTNVGGDARSPGLGGLGGLGSLGGLGGLGMLGADSPLGATPDASQLSQLLQNPAISQMMQSVFSNPQYMNQLMSLNPQLRSMLDSNPQLREMMQNPDFLRQFSSPEMMQQMMTLQQSLSQNRNTASQDAGQTGAATGNNGGLDLLMNMFGSLGAGGLSGTNQSNVPPEERYATQLQQLQEMGFYDRAENIRALLATNGNVNAAVERLLGSIGQ
notes: DSK2B (AT2G17200), Arabidopsis thaliana, C-terminus (DSK2BCT); the limits 237 to 552 a.a. are printed for the two-hybrid construct DSK2B-CT of the same name; Cloned into EcoRI-digested pGEX-4T-1; also called pGEX-4T-1-DSK2CT; source: E. coli Rosetta (DE3), purified (GST agarose)
B2: His-TCP7 (natural protein)
chain: not shown
notes: TCP7 (AT5G23280), Arabidopsis thaliana; Cloned into BamHI/SalI-digested pET32a; also called recombinant His-TCP7; pET32a-TCP7; source: E. coli Rosetta (DE3), purified (Ni-NTA agarose)
B3: His-TCP21 (natural protein)
chain: not shown
notes: TCP21 (AT5G08330), Arabidopsis thaliana; Cloned into BamHI/SalI-digested pET32a; also called recombinant His-TCP21; pET32a-TCP21; source: E. coli Rosetta (DE3), purified (Ni-NTA agarose)

Experiments:
Test in all cases: pull-down; GST pull-down: GST or GST-DSK2BCT incubated with His-tagged TCP in 50 mM Tris-HCl pH 7.5, 150 mM NaCl, 0.5% Triton X-100, 1 mM PMSF at 4 C for 3 h, then GST beads 1 h; blots anti-GST and anti-His
Conditions in all cases: both partners purified
[1] = target: T1, His-TCP14 (Arabidopsis thaliana, UniProt Q93Z00 1-489)
T1 construct: TCP14 (AT3G47620), Arabidopsis thaliana; Cloned into BamHI/SalI-digested pET32a; also called recombinant His-TCP14; pET32a-TCP14; source: E. coli Rosetta (DE3), purified (Ni-NTA agarose)

[2] = target: T2, His-TCP15 (Arabidopsis thaliana, UniProt Q9C9L2 1-325)
T2 construct: TCP15 (AT1G69690), Arabidopsis thaliana; Cloned into BamHI/SalI-digested pET32a; also called recombinant His-TCP15; pET32a-TCP15; source: E. coli Rosetta (DE3), purified (Ni-NTA agarose)

[3] = target: B1

T1 sequence (Q93Z00 whole entry): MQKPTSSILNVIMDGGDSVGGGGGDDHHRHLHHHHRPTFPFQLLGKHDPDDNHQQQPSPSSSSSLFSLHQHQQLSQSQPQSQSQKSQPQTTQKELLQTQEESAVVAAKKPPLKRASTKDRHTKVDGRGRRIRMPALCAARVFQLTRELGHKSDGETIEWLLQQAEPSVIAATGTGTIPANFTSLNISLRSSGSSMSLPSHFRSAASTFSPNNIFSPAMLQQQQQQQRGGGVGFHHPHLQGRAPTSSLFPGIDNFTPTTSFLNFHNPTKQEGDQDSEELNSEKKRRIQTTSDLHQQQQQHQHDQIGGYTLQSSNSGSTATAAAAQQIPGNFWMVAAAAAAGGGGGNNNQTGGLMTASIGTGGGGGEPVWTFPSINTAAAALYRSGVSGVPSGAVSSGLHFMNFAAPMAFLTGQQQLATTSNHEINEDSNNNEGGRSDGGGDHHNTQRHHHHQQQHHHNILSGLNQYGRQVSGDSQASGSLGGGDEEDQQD

binding result [1]	binding result [2]	binding result [3]	Binder
binds	binds	–	B1
–	–	binds	B2
–	–	binds	B3
